From publication PMC7610691 (Nature structural & molecular biology, 2020)

Legend:
[1] = biological target: T1, Smc2 (S. cerevisiae condensin subunit) (S. cerevisiae, UniProt P38989 1-1170); experiment: cryo-EM structure
T1 sequence: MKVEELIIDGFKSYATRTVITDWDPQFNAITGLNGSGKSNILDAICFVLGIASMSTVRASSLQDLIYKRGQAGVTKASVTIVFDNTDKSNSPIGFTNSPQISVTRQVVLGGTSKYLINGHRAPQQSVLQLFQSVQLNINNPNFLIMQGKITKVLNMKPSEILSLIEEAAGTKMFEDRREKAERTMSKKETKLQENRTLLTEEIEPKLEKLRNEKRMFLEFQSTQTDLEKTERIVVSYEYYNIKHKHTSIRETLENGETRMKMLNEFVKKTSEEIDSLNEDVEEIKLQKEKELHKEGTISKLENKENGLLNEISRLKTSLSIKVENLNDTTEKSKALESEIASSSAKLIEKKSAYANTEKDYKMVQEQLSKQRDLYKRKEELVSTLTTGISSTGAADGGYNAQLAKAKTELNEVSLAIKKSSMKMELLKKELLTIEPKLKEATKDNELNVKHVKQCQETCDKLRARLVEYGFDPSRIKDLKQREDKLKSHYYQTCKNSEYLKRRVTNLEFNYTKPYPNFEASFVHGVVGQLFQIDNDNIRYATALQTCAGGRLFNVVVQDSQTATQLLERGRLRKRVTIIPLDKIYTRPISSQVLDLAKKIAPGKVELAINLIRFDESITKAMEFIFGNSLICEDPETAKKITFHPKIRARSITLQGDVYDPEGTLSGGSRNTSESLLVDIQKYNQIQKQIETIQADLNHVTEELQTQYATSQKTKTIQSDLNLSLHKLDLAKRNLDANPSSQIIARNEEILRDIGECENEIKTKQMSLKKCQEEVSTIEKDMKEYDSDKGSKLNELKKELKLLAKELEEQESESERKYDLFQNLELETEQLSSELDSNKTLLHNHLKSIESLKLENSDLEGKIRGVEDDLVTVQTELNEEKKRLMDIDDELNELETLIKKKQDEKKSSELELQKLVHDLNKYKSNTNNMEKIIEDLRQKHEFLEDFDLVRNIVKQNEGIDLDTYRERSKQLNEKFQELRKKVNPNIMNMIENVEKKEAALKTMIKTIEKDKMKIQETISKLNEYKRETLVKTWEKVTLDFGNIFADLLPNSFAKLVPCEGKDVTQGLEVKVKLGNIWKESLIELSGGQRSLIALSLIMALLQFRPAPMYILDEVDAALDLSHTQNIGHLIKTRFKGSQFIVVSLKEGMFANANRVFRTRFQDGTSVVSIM

[2] = biological target: T2, Ycs4 (S. cerevisiae condensin HEAT-repeat subunit) (S. cerevisiae, UniProt Q06156 1-1176); experiment: cryo-EM structure
T2 sequence: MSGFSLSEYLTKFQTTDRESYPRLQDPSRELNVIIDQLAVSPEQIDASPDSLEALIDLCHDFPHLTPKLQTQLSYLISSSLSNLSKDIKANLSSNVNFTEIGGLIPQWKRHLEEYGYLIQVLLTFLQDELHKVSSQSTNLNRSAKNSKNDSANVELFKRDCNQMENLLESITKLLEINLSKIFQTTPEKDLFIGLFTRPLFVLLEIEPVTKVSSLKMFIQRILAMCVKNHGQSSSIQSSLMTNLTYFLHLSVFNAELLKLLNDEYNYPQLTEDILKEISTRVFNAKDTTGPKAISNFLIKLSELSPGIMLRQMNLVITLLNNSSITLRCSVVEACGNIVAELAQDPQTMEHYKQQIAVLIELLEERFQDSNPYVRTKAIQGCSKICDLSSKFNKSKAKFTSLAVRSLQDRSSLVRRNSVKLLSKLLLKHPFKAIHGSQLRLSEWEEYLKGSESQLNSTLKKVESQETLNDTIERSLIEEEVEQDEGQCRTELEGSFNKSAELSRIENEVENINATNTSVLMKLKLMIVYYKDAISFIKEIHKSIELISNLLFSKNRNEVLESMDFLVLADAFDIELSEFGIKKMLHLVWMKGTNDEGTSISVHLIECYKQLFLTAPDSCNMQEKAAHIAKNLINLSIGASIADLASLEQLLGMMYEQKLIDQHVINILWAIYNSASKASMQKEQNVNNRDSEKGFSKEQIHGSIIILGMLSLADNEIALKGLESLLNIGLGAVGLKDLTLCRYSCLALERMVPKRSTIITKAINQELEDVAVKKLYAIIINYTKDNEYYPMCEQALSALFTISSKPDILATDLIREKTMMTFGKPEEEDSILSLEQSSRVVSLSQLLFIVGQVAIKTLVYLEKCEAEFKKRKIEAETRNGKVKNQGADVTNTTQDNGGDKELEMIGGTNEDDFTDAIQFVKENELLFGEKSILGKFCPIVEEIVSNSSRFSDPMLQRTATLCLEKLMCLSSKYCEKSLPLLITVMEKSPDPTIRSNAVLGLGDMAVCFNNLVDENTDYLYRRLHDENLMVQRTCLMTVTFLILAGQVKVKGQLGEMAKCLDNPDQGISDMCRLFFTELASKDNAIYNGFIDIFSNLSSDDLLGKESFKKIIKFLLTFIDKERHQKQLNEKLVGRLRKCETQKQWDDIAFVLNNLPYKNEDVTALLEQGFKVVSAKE

B1: Brn1 (S. cerevisiae condensin kleisin subunit) (natural protein)
chain: MTTQLRYENNDDDERVEYNLFTNRSTMMANFEEWIKMATDNKINSRNSWNFALIDYFYDLDVLKDGENNINFQKASATLDGCIKIYSSRVDSVTTETGKLLSGLAQRKTNGASNGDDSNGGNGEGLGGDSDEANIEIDPLTGMPISNDPDVNNTRRRVYNRVLETTLVEFETIKMKELDQELIIDPLFKKALVDFDEGGAKSLLLNTLNIDNTARVIFDASIKDTQNVGQGKLQRKEEELIERDSLVDDENEPSQSLISTRNDSTVNDSVISAPSMEDEILSLGMDFIKFDQIAVCEISGSIEQLRNVVEDINQAKDFIENVNNRFDNFLTEEELQAAVPDNAEDDSDGFDMGMQQELCYPDENHDNTSHDEQDDDNVNSTTGSIFEKDLMAYFDENLNRNWRGREHWKVRNFKKANLVNKESDLLEETRTTIGDTTDKNTTDDKSMDTKKKHKQKKVLEIDFFKTDDSFEDKVFASKGRTKIDMPIKNRKNDTHYLLPDDFHFSTDRITRLFIKPGQKMSLFSHRKHTRGDVSSGLFEKSTVSANHSNNDIPTIADEHFWADNYERKEQEEKEKEQSKEVGDVVGGALDNPFEDDMDGVDFNQAFEGTDDNEEASVKLDLQDDEDHKFPIRENKVTYSRVSKKVDVRRLKKNVWRSINNLIQEHDSRKNREQSSNDSETHTEDESTKELKFSDIIQGISKMYSDDTLKDISTSFCFICLLHLANEHGLQITHTENYNDLIVNYEDLATTQAAS
binding result [1]: binds
binding result [2]: binds
